Data taken from US20090239794A1, “HCV F PROTEIN AND USES THEREOF” (priority 2004, published 2009).

Biological target: HLA-A*0201 on the surface of T2 cells (human)
Experiment: T2 peptide binding assay, W6/32-FITC flow cytometry

Binder	peak fluorescence, % of the level obtained with NS3 1406-1415 [%]
VRSLVEFTCCRAGAL (modifications not checked) [F protein peptide F29-43]	87.6
CCRAGALDWVCARRE (modifications not checked) [F protein peptide F37-51]	79.2
PVALGLAGAPQTPGV (modifications not checked) [F protein peptide F101-115]	83.2
